EC50 data for one molecule are collected here from patent US20160039916A1 (MISFOLDING DIAGNOSTICS, published 2016).

Ends that are not written are not given here.

The assay has as its target T1, Peptide 13 (TSESGELHGLTTE) (also: biotinylated).
T1 construct: Lies on the D-strand of TTR
T1 peptide: TSESGELHGLTTE
In words: indirect ELISA: biotinylated peptide 13 (TSESGELHGLTTE) captured on NeutrAvidin, antibody titrated, HRP secondary antibody, TMB, % max. binding, the axis is Log10 [Antibody] nM. (In general: In an ELISA, binding on a coated surface is turned into a signal by an enzyme label.)

B1: MFD108 (antibody, V domains shown)
VH: EVQLVESGGDLVKPGGSLKLSCAASGFTFSNYGMSWVRQTPDKRLEWVATITSGGSYTYYPDSVKGRFTISRDNAKNTLYLQMSSLKSEDTAMYYCARDGTAWFAYWGQGTLVTVSA
VL: DIQMTQTTSSLSASLGDRVTISCRASQDISNYLNWYQQKPDGTVKLLIYYTSRLHSGVPSRFSGSGSGTDYSLTISNLEEEDIATYFCQQGNTLRTFGGGTKLEIK
On to B1, for which it took 0.247 nM to reach a half-maximal effect (EC50).
